The record followed here is patent US20260049105A1, “SELECTIVE MC4R LIGAND FOR TREATING OBESITY AND COGNITIVE LOSS” (ARIZONA BOARD OF REGENTS ON BEHALF OF THE UNIVERSITY OF …, priority 2022, published 2026).

Where two headings read alike, the source gives them in different places. A value given as a limit tells only on which side of the number the result lay.

Experiment [1] deals with human melanocortin 1 receptor (human) (UniProt Q01726). In words: competition with 125I-NDP-α-MSH, cells expressing hMC1R.
Experiment [2] has as its target human melanocortin 5 receptor (human) (UniProt P33032). In words: competition with 125I-NDP-α-MSH, cells expressing hMC5R.
Experiment [3] has as its target human melanocortin 3 receptor (human) (UniProt P41968). In words: competition with 125I-NDP-α-MSH, cells expressing hMC3R.
Experiment [4] concerns the target human melanocortin 5 receptor (human) (UniProt P33032). In words: cell-based or functional assay.
The target in experiment [5] is human melanocortin 1 receptor (human) (UniProt Q01726). Briefly: cell-based or functional assay.
For experiment [6], the target named is human melanocortin 4 receptor (human) (UniProt P32245). Briefly: cell-based or functional assay.
The target of experiment [7] is human melanocortin 3 receptor (human) (UniProt P41968). In words: cell-based or functional assay.
Experiment [8] has as its target human melanocortin 4 receptor (human) (UniProt P32245). In words: competition with 125I-NDP-α-MSH on whole HEK293 cells expressing hMC4R.
The target is the same in experiment [9]. Briefly: competition with 125I-NDP-α-MSH, ratio of IC50 values.
The target is the same in experiment [10]. In words: plasmon waveguide resonance, hMC4R membranes.
Experiment [11] shares this target. Briefly: competition with 125I-NDP-α-MSH on whole HEK293 cells expressing hMC4R. This is another data set of the same source.

Sequence of human melanocortin 5 receptor (human) (P33032 whole entry): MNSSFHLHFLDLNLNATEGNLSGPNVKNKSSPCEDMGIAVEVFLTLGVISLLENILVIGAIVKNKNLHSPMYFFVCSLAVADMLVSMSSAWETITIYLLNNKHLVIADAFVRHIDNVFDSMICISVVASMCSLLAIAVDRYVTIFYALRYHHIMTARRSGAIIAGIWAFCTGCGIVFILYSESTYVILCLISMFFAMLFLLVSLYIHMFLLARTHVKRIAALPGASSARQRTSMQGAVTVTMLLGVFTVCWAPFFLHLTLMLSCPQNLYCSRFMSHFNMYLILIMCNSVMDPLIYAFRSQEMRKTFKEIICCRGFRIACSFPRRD
Sequence of human melanocortin 1 receptor (human) (Q01726 whole entry): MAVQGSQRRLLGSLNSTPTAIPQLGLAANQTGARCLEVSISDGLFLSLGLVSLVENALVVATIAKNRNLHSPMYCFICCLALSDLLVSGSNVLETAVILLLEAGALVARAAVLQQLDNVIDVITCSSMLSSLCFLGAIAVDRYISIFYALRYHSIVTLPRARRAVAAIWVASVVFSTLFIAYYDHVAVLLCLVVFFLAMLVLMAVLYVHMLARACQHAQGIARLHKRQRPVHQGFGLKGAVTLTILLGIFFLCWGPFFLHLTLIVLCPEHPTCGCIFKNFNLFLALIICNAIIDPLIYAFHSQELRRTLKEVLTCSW
Sequence of human melanocortin 3 receptor (human) (P41968 whole entry): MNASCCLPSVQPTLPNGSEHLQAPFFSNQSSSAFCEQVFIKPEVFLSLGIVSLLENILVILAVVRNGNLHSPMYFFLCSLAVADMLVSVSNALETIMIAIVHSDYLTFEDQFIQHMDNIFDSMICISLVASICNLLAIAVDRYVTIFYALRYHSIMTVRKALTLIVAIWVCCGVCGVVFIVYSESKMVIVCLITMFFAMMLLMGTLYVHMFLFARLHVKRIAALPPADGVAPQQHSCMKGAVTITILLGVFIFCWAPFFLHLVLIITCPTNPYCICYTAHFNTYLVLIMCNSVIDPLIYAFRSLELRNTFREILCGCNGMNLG
Sequence of human melanocortin 4 receptor (human) (P32245 whole entry): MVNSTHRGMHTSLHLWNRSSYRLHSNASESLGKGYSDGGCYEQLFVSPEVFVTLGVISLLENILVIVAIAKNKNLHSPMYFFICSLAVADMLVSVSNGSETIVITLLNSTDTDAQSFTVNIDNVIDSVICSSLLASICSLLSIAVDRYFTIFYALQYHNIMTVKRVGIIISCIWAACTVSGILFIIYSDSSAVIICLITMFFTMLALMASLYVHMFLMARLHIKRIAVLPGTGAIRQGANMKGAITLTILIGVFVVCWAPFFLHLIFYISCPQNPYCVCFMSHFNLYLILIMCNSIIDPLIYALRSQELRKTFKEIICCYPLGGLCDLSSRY

By IC50 is commonly meant the concentration that gives 50% inhibition. A lower IC50 goes with greater potency in that assay. For “Ac-Arg-cyclo[Asp-Pip-D-Phe(4-Cl)-Arg-βTrp-Lys]-NH2 (peptide)”, the BE % (percent NDP-α-MSH displacement at 10 µM) amounted to 100% in experiment [1], 0% in experiment [2] and 70% in experiment [3]. In addition, the IC50 in experiment [1] turned out to be 0.9 nM; in experiment [3], 37 nM; in [8], 10 nM. Also, the Act % in [4] turned out to be 21%; in experiment [5], 67%; in [6] it was 57%; in experiment [7] it was 24%. The EC50 (nM), cAMP accumulation was above 1000 nM in experiment [4], 99 nM in experiment [5], 240 nM in experiment [6] and above 1000 nM in [7]. Also, the BE% (percent [125I]NDP-α-MSH displacement at 10 µM) in experiment [8] worked out at 100%.

In the case of “Ac-Arg-cyclo[Asp-Pip-D-Phe(4-Cl)-βArg-Trp-Lys]-NH2 (peptide)”, the results for the BE % (percent NDP-α-MSH displacement at 10 µM) in experiment [1], in experiment [2] and in [3] were 100%, 0% and 100%, respectively. Moreover, the IC50 in experiment [1] was found to be 5 nM; in experiment [3], 108 nM; in experiment [8] it was 8 nM. Moreover, the Act % in experiment [4] was 38%; in experiment [5], 89%; in experiment [6], 66%; in [7] it was 46%. In addition, the EC50 (nM), cAMP accumulation in experiment [4] was above 1000 nM; in experiment [5] it was 130 nM; in [6], 110 nM; in [7], 360 nM. In [8], this substance had a BE% (percent [125I]NDP-α-MSH displacement at 10 µM) of 100%.

Regarding “Ac-Arg-cyclo[Asp-Pip-D-Phe(4-Cl)-βArg-βTrp-Lys]-NH2 (peptide)”, in experiment [1], the BE % (percent NDP-α-MSH displacement at 10 µM) worked out at 100% and the IC50 was found to be 27 nM. In [2], this substance yielded a BE % (percent NDP-α-MSH displacement at 10 µM) of 75% and an IC50 of 70 nM. The same substance registered a BE % (percent NDP-α-MSH displacement at 10 µM) in [3] of 10%. In [4], this substance returned an Act % of 76% and an EC50 (nM), cAMP accumulation of 295 nM. In experiment [5], this substance returned an Act % of 90% and an EC50 (nM), cAMP accumulation of 240 nM. In [6], this substance had an Act % of 87%; an EC50 (cAMP) of 4.2 nM; an EC50 (nM), cAMP accumulation of 4 nM. In [7], this substance gave an Act % of 63% and an EC50 (nM), cAMP accumulation above 1000 nM. In [8], this substance yielded a BE% (percent [125I]NDP-α-MSH displacement at 10 µM) of 100% and an IC50 of 0.4 nM. In experiment [9], the fold higher binding affinity to hMC4R than hMC1R was 68 fold, the fold higher binding affinity to hMC4R than hMC3R was above 1000 fold and the fold higher binding affinity to hMC4R than hMC5R is above 1000 fold. Moreover, in experiment [10], the PWR resonance position, p-polarization (hMC4R sole 26.44) came to 26.9 degrees.

As to “Ac-Arg-cyclo[Asp-Pip-D-Phe(4-F)-Arg-βTrp-Lys]-NH2 (peptide)”, the BE % (percent NDP-α-MSH displacement at 10 µM) in experiment [1], in [2] and in experiment [3] was 100% in each case. Moreover, the results for the IC50 in experiment [1], in [2] and in experiment [3] were 0.2 nM, 47 nM and 117 nM, respectively. The Act % in experiment [4] amounted to 72%; in [5], 90%; in experiment [6], 46%; in experiment [7], 76%. In addition, the EC50 (nM), cAMP accumulation in experiment [4] amounted to 530 nM; in [5], 64 nM; in [6], 630 nM; in experiment [7], 450 nM. This substance returned a BE% (percent [125I]NDP-α-MSH displacement at 10 µM) in [8] of 9%.

Consider “Ac-Arg-cyclo[Asp-Pip-D-Phe(4-F)-βArg-βTrp-Lys]-NH2 (peptide)”, for which the BE % (percent NDP-α-MSH displacement at 10 µM) in [1] is 0%; in experiment [2], 90%; in experiment [3], 39%. Further, the results for the IC50 in [2], in experiment [3] and in experiment [8] were 59 nM, 396 nM and 248 nM, respectively. In addition, the Act % in [4] was 51%; in [5] it was 61%; in experiment [6], 120%; in experiment [7] it was 49%. The EC50 (nM), cAMP accumulation in [4], in experiment [5], in [6] and in [7] was above 1000 nM throughout. In [8], this substance gave a BE% (percent [125I]NDP-α-MSH displacement at 10 µM) of 59%.

As for “Ac-Arg-cyclo[Asp-Pip-D-Phe-Arg-βTrp-Lys]-NH2 (peptide)”, the BE % (percent NDP-α-MSH displacement at 10 µM) was 100% in [1], 66% in experiment [2] and 60% in experiment [3]. The IC50 was 3 nM in experiment [1], 350 nM in experiment [2] and 149 nM in experiment [3]. Also, the Act % in experiment [4] amounted to 95%; in [5], 88%; in [6], 63%; in experiment [7] it was 88%. For the same substance, the EC50 (nM), cAMP accumulation in [4] is 580 nM; in [5] it was 120 nM; in experiment [6], above 1000 nM; in experiment [7] it was 680 nM. Also, the BE% (percent [125I]NDP-α-MSH displacement at 10 µM) in experiment [8] is 0%.

Turning to “Ac-Arg-cyclo[Asp-Pip-D-Phe-βArg-Trp-Lys]-NH2 (peptide)”, the BE % (percent NDP-α-MSH displacement at 10 µM) in [1] is 100%; in experiment [2], 0%; in [3], 24%. The IC50 stood at 0.1 nM in [1], 600 nM in experiment [3] and 0.4 nM in experiment [8]. The Act % in experiment [4] worked out at 90%; in experiment [5] it was 120%; in [6], 67%; in experiment [7], 89%. Moreover, the EC50 (nM), cAMP accumulation in experiment [4] is above 1000 nM; in experiment [5], 220 nM; in [6] it was 47 nM; in experiment [7] it was above 1000 nM. Besides, the BE% (percent [125I]NDP-α-MSH displacement at 10 µM) in experiment [8] is 100%.

Regarding “Ac-Arg-cyclo[Asp-Pip-D-Phe-βArg-βTrp-Lys]-NH2 (peptide)”, the BE % (percent NDP-α-MSH displacement at 10 µM) in experiment [1] was found to be 30%; in [2] it was 46%; in experiment [3] it was 100%. Besides, the IC50 in [1] amounted to 270 nM; in experiment [2], 607 nM; in [11] it was 1 nM; in [3], 7 nM; in experiment [8] it was 0.1 nM. The Act % in experiment [4] is 82%; in experiment [5], 82%; in experiment [6] it was 84%; in [7], 87%. Besides, the EC50 (nM), cAMP accumulation in [4] worked out at 290 nM; in [5], 190 nM; in experiment [6], 16 nM; in [7], 120 nM. In experiment [8], this substance gave a BE% (percent [125I]NDP-α-MSH displacement at 10 µM) of 100%.

As for “Melanotan II, Ac-Nle-c[Asp-His-DPhe-Arg-Trp-Lys]-NH2 (peptide)”, the BE % (percent NDP-α-MSH displacement at 10 µM) in experiment [1], in [2] and in experiment [3] was 100% throughout. The IC50 in [1] came to 7 nM; in [2], 6 nM; in experiment [3], 9 nM. Besides, the Act % in experiment [4], in experiment [5], in experiment [6] and in experiment [7] was 100% in each case. Further, the EC50 (nM), cAMP accumulation was 2 nM in [4], 32 nM in experiment [5], 10 nM in experiment [6] and 3 nM in [7]. This substance showed a BE% (percent [125I]NDP-α-MSH displacement at 10 µM) in experiment [8] of 100%.

For the substance RM493 (peptide), in experiment [10], the PWR left shift against hMC4R sole, p-polarization came to 0.25 degrees and the PWR resonance position, s-polarization (sole MC4R 33.29) came to 33 degrees.
